Legend:
Test in all cases: cryo-EM structure; purified SGIV virions; icosahedral capsid, block-based reconstruction at 3.5 Å; atomic model of one asymmetric unit
[1] = target: Singapore grouper iridovirus major capsid protein VP72 (Singapore grouper iridovirus (SGIV))
[2] = target: Singapore grouper iridovirus penton protein VP14 (Singapore grouper iridovirus (SGIV))
[3] = target: Singapore grouper iridovirus zip protein VP38 (P1) (Singapore grouper iridovirus (SGIV))

Q: “Singapore grouper iridovirus major capsid protein VP72 (natural protein)” was tested. Which stoichiometry N [1] did it give?
A: 3

Q: “Singapore grouper iridovirus penton protein VP14 (natural protein)” was tested. Which stoichiometry N [2] did it give?
A: 5

Q: With “Singapore grouper iridovirus zip protein VP38 (P1) (natural protein)” as the substance, how does the stoichiometry N [3] read?
A: 2
